Results taken from patent US20160376343A1 (NATIONAL INSTITUTE FOR BIOTECHNOLOGY IN THE NEGEV, published 2016).

target: T1, hIL-17A (human, UniProt Q16552 24-155); test: ELISA on captured hIL-17A
T1 construct: Bought protein
Protocol: (§1) ELISA plates (Griener Microlon 96W) were incubated with 100 μl of 0.5 μg/ml goat α-hIL-17A antibodies (R&D Systems) for 1 hour, washed with PBS supplemented with 0.05% Tween-80 (PBST) and 100 μl of 0.35 μg/ml hIL-17A (R&D Systems or ProSpec Tany TechnoGene Ltd.) were added to the plate for an additional 1 hour. The plates were then washed with PBST and blocked by incubation with 100 μl of PBS supplemented with 3% skim milk for 1 hour. Following blocking, the plates were washed and incubated with 100 μl of the cleared lysate, cell media or purified protein generated (described above) at appropriate dilutions and shaken for 1 hour. hIL-17RA (R&D Systems) was applied at a concentration of 6.25 μg/ml as a positive control, and PBS supplemented with 1% BSA as a negative control. Plates were then washed with PBST, incubated with 100 μl of 0.05 μg/ml goat α-hIL-17RA antibodies (R&D Systems) followed by a secondary peroxidase-conjugated streptavidin (Jackson, 1:10000 dilution). Finally, 100 μl of the horseradish peroxidase (HRP) chromogenic 3,3′,5,5′-tetramethylbenzidine (TMB) substrate solution (Dako) were added. The reaction was stopped by the addition of 1 M sulfuric acid and recorded at 450 nm using a Tecan Infinite M200 plate reader.

T1 sequence (Q16552 24-155 limits assumed): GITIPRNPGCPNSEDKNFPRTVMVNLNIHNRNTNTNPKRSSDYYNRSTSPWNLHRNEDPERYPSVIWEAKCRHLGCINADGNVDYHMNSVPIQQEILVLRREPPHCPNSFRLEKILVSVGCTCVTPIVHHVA

IL-17A binding relative to the WT | Binder
45% | V3 K109R (Fc fusion, Expressed in mammalian cells; not shown: human IgG1 engineered Fc from the mammalian expression vector) LRLLDHRAPVCSQPGLNCTVKNSTCLDDSWIHPRNLTPSSPKDLQIQLHFAHTQQGDLFPVAHIEWTLQTDASILYLEGAELSVLQLNTNERLCVRFEFLSKLRHHHRRWRFTFSHFVVDPGQEYEVTVHHLPKPIPDGDPNHQSKNFLVPDCEDARMKVTTPCMSSGSLWDPNITVETLEAHQLRVSFTLWNESTHYQILLTSFPHMENHSCFEHMHHIPAPRPEEFHQRSNVTLTLRNLKWCCRHQVQIQPFFSSCLNDCLRHSVTVSCPEMPDTPEPIPDYMPLW
80% | V3M V268A (Fc fusion, Expressed in mammalian cells; also called V3 V268A; not shown: human IgG1 engineered Fc from the mammalian expression vector) LRLLDHRAPVCSQPGLNCTVKNSTCLDDSWIHPRNLTPSSPKDLQIQLHFAHTQQGDLFPVAHIEWTLQTDASILYLEGAELSVLQLNTNERLCVRFEFLSKLRHHHKRWRFTFSHFVVDPGQEYEVTVHHLPKPIPDGDPNHQSKNFLVPDCEDARMKVTTPCMSSGSLWDPNITVETLEAHQLRVSFTLWNESTHYQILLTSFPHMENHSCFEHMHHIPAPRPEEFHQRSNVTLTLRNLKWCCRHQVQIQPFFSSCLNDCLRHSATVSCPEMPDTPEPIPDYMPLW
100% | hIL17RA-ECD variant V3 (Fc fusion, also called hIL-17R-V3; hIL17R-V3; not shown: human IgG1 engineered Fc (reduced ADCC/CDC) from the expression vector) LRLLDHRAPVCSQPGLNCTVKNSTCLDDSWIHPRNLTPSSPKDLQIQLHFAHTQQGDLFPVAHIEWTLQTDASILYLEGAELSVLQLNTNERLCVRFEFLSKLRHHHKRWRFTFSHFVVDPGQEYEVTVHHLPKPIPDGDPNHQSKNFLVPDCEDARMKVTTPCMSSGSLWDPNITVETLEAHQLRVSFTLWNESTHYQILLTSFPHMENHSCFEHMHHIPAPRPEEFHQRSNVTLTLRNLKWCCRHQVQIQPFFSSCLNDCLRHSVTVSCPEMPDTPEPIPDYMPLW
100% | hIL17RA-ECD variant V10 (Fc fusion, also called V10M; not shown: human IgG1 engineered Fc (reduced ADCC/CDC) from the expression vector) LRLLDHRAPVCSQPGLNCTVKNSTCLDDSWIHPRNLTPSSPKDLQIQLHFAHTQQGDLVPVAHIEWTLQTDASILYLEGAELSVLQLNTNERLCVRFEFLSKLRHHHKRWRFTFSHFVVDPGQEYEVTVHHLPKPIPDGDPNHQSKNFLVPDCEHPRMKVTTPCMSSGSLWDPNITVETLEAHQLRVSFTLWNESTHYQILLTSFPHMENHSCFEHMHHIPAPRPEEFHQRSNVTLTLRNLKGCCRHQVQIQPFFSSCLNDCLRHSATVSCPEMPDTPEPIPDYMPLW
65% | V3 W244G (Fc fusion, Expressed in mammalian cells; not shown: human IgG1 engineered Fc from the mammalian expression vector) LRLLDHRAPVCSQPGLNCTVKNSTCLDDSWIHPRNLTPSSPKDLQIQLHFAHTQQGDLFPVAHIEWTLQTDASILYLEGAELSVLQLNTNERLCVRFEFLSKLRHHHKRWRFTFSHFVVDPGQEYEVTVHHLPKPIPDGDPNHQSKNFLVPDCEDARMKVTTPCMSSGSLWDPNITVETLEAHQLRVSFTLWNESTHYQILLTSFPHMENHSCFEHMHHIPAPRPEEFHQRSNVTLTLRNLKGCCRHQVQIQPFFSSCLNDCLRHSVTVSCPEMPDTPEPIPDYMPLW
85% | V3 P10L (Fc fusion, Expressed in mammalian cells; not shown: human IgG1 engineered Fc from the mammalian expression vector) LRLLDHRALVCSQPGLNCTVKNSTCLDDSWIHPRNLTPSSPKDLQIQLHFAHTQQGDLFPVAHIEWTLQTDASILYLEGAELSVLQLNTNERLCVRFEFLSKLRHHHKRWRFTFSHFVVDPGQEYEVTVHHLPKPIPDGDPNHQSKNFLVPDCEDARMKVTTPCMSSGSLWDPNITVETLEAHQLRVSFTLWNESTHYQILLTSFPHMENHSCFEHMHHIPAPRPEEFHQRSNVTLTLRNLKWCCRHQVQIQPFFSSCLNDCLRHSVTVSCPEMPDTPEPIPDYMPLW
10% | V10 V60F (Fc fusion, Expressed in mammalian cells; not shown: human IgG1 engineered Fc from the mammalian expression vector) LRLLDHRAPVCSQPGLNCTVKNSTCLDDSWIHPRNLTPSSPKDLQIQLHFAHTQQGDLFPVAHIEWTLQTDASILYLEGAELSVLQLNTNERLCVRFEFLSKLRHHHKRWRFTFSHFVVDPGQEYEVTVHHLPKPIPDGDPNHQSKNFLVPDCEHPRMKVTTPCMSSGSLWDPNITVETLEAHQLRVSFTLWNESTHYQILLTSFPHMENHSCFEHMHHIPAPRPEEFHQRSNVTLTLRNLKGCCRHQVQIQPFFSSCLNDCLRHSATVSCPEMPDTPEPIPDYMPLW
80% | V10 K109R (Fc fusion, Expressed in mammalian cells; not shown: human IgG1 engineered Fc from the mammalian expression vector) LRLLDHRAPVCSQPGLNCTVKNSTCLDDSWIHPRNLTPSSPKDLQIQLHFAHTQQGDLVPVAHIEWTLQTDASILYLEGAELSVLQLNTNERLCVRFEFLSKLRHHHRRWRFTFSHFVVDPGQEYEVTVHHLPKPIPDGDPNHQSKNFLVPDCEHPRMKVTTPCMSSGSLWDPNITVETLEAHQLRVSFTLWNESTHYQILLTSFPHMENHSCFEHMHHIPAPRPEEFHQRSNVTLTLRNLKGCCRHQVQIQPFFSSCLNDCLRHSATVSCPEMPDTPEPIPDYMPLW

target: T1, hIL-17A; test: SPR (ProteOn XPR36), receptor immobilised, hIL-17A as analyte
Protocol: The affinity of hIL-17A binding to hIL17RA-ECD variants was determined by SPR measurements on ProteOn XPR36 (Bio-Rad) instrument. All samples were in HBST buffer (10 mM HEPES with 0.15 M NaCl, 3.4 mM EDTA and 0.005% Tween-20, pH 7.2). A GLC Chip was air initialized and activated with EDC/S-NHS and […] from each of the hIL17RA-ECD variants were diluted in Acetate buffer pH 5.5 and immobilized onto the chip. The measured binding levels for WT hIL17RA-ECD, V3 and V10 were ˜5300RU, 6700RU and 7400RU, respectively. Following blockage of the unbound sites on the chip with Ethanolamine, the chip was flushed with HBST buffer and rotated. The hIL-17A was run at 25 μl/min. for 300 sec at various concentrations (50, 25, 12.5, 6.25 and 3.125 nM) followed by a 10-min. dissociation step. Binding parameters were determined using Langmuir single binding site model using the Bio-Rad's proteOn Manager Software V2.1.2.05.

Fold increase in affinity (against WT hIL17RA-ECD) | Kd | koff | kon | Binder
6 fold | 0.443 nM | 7.51e-05 s⁻¹ | 170000 M⁻¹ s⁻¹ | hIL17RA-ECD variant V3 (Fc fusion, also called hIL-17R-V3; hIL17R-V3; not shown: human IgG1 engineered Fc (reduced ADCC/CDC) from the expression vector) LRLLDHRAPVCSQPGLNCTVKNSTCLDDSWIHPRNLTPSSPKDLQIQLHFAHTQQGDLFPVAHIEWTLQTDASILYLEGAELSVLQLNTNERLCVRFEFLSKLRHHHKRWRFTFSHFVVDPGQEYEVTVHHLPKPIPDGDPNHQSKNFLVPDCEDARMKVTTPCMSSGSLWDPNITVETLEAHQLRVSFTLWNESTHYQILLTSFPHMENHSCFEHMHHIPAPRPEEFHQRSNVTLTLRNLKWCCRHQVQIQPFFSSCLNDCLRHSVTVSCPEMPDTPEPIPDYMPLW
4.2 fold | 0.624 nM | 0.000115 s⁻¹ | 184000 M⁻¹ s⁻¹ | hIL17RA-ECD variant V10 (Fc fusion, also called V10M; not shown: human IgG1 engineered Fc (reduced ADCC/CDC) from the expression vector) LRLLDHRAPVCSQPGLNCTVKNSTCLDDSWIHPRNLTPSSPKDLQIQLHFAHTQQGDLVPVAHIEWTLQTDASILYLEGAELSVLQLNTNERLCVRFEFLSKLRHHHKRWRFTFSHFVVDPGQEYEVTVHHLPKPIPDGDPNHQSKNFLVPDCEHPRMKVTTPCMSSGSLWDPNITVETLEAHQLRVSFTLWNESTHYQILLTSFPHMENHSCFEHMHHIPAPRPEEFHQRSNVTLTLRNLKGCCRHQVQIQPFFSSCLNDCLRHSATVSCPEMPDTPEPIPDYMPLW

target: T1, hIL-17A; test: ELISA of cleared E. coli lysate on plate-captured hIL-17A, detected with biotinylated anti-hIL-17RA and streptavidin-HRP, OD 450 nm; concentration not given
Protocol: as §1

binding result | Binder
binds | V9 expressed in E. coli (Trx-6xHis-tagged) (receptor, Tested as cleared E. coli lysate; not shown: N-terminal thioredoxin (Trx)-6xHistidine tag of pET32) LRLLDHRAPVCSQEGLNCTVKNSTCLDDSWIHPRNLTPSSPKNLQIQLHFAHTQQGDLLPVAHIEWTLQTDASILYLEGAELSVLQLNTNERLCVKFEFLSKLRHHHKRWRFTFSHFVVDPDQEYEVTVHHLPKPIPDGDPNHQSKNFLVPDCEHARMKVTTPCMSSGSLWDPNITVETLEAHQLRVSFTLWNESTHYQILLTSFPHMENHSCFEHMHHIPAPRPEEFHQRSNVTLTLRNLKGCCRHQVQIQPFFSSCLNDCLRHSATVSCPEMPDTPEPIPDYMPLW
binds | V6 expressed in E. coli (Trx-6xHis-tagged) (receptor, Tested as cleared E. coli lysate; not shown: N-terminal thioredoxin (Trx)-6xHistidine tag of pET32) LRLLDHRALVCSQEGLNCTVKNSTCLDDSWIHPRNLTPSSPKDLQIQLHFAHTQQGDLLPVAHIEWTLQTDASILYLEGAELSVLQLNTNERLCVRFEFLSKLRHHHKRWRFTFSHFVVDPGQEYEVTVHHLPKPIPDGDPNHQSKNFLVPDCEHARMKVTTPCMSSGSLWDPNITVETLEAHQLRVSFTLWNESTHYQILLTSFPHMENHSCFEHMHHIPAPRPEEFHQRSNVTLTLRNLKGCCRHQVQIQPFFSSCLNDCLRHSATVSCPEMPDTPEPIPDYMPLW
